From patent US20200148774A1 (Genentech, published 2020)
Where “and” joins values, the source holds several entries; their conditions need not be identical. Equal values may be shown once.

T1: human CLL-1 on cells (endogenous on HL-60, EOL-1 and other AML cell lines and CD14+ monocytes); recombinant on … (human, UniProt Q5QGZ9 1-265)
T1 construct: also called 293AD/huCLL-1; tumor-derived CLL-1
T1 sequence: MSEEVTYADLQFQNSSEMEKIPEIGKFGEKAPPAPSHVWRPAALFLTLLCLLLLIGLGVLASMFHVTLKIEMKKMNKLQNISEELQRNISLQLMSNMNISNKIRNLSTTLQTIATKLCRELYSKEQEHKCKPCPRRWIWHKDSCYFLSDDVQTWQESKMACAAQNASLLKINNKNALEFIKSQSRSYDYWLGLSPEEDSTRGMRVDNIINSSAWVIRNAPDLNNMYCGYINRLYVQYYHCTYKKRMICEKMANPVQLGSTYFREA

T2: recombinant cynomolgus CLL-1 extracellular domain (ECD, amino acids 65-265) fused to an N-terminal Flag (cynomolgus monkey)
T2 construct: Construct stated for the immunogen; also called CynoCLL-1 Flag; cynoCLL-1
T2 chain: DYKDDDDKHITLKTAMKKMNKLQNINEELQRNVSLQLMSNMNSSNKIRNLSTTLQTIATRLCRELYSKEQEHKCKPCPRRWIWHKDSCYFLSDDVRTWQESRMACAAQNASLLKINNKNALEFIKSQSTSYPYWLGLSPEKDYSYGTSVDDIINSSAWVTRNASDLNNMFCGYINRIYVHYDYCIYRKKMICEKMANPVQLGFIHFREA

T3: recombinant human CLL-1 extracellular domain (ECD, amino acids 65-265) fused to an N-terminal Flag (human, UniProt Q5QGZ9 65-265)
T3 construct: The construct and the K244Q SNP are stated for the immunogen; they are not written as a piece; also called huCLL-1-Flag; huCLL-1
T3 chain: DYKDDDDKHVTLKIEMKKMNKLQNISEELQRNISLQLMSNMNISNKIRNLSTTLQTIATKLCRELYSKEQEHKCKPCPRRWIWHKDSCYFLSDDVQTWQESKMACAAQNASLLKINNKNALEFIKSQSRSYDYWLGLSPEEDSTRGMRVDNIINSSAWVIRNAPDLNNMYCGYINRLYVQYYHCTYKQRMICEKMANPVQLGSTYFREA

T4: cynomolgus CLL-1 on cells (recombinant on HEK293AD cells) (cynomolgus monkey)
T4 construct: also called 293AD/cynoCLL-1; 293AD/cynoCLL1
T4 chain: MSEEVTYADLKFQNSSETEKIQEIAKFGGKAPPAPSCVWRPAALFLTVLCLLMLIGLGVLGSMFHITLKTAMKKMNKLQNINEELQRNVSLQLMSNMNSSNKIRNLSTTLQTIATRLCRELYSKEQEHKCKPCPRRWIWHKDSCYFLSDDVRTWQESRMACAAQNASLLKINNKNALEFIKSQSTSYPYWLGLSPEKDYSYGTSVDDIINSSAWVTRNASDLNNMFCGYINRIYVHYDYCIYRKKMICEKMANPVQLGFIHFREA

T5: cynoCD3εγ (cynomolgus monkey, UniProt Q95LI5 22-117; Q95LI7 23-113)
T5 construct: also called cynomolgus CD3εγ
T5 sequence (looked up) 1: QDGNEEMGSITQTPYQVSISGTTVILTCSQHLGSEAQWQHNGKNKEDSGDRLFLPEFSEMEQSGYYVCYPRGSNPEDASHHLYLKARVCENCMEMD
T5 sequence (looked up) 2: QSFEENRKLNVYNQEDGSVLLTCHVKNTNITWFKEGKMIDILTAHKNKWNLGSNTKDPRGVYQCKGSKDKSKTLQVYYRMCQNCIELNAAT


Legend:
[1] = target: T1, human CLL-1 on cells (endogenous on …); assay: Scatchard, EOL-1 cells
[2] = target: T2, recombinant cynomolgus CLL-1 …; assay: SPR (Biacore T200), IgG captured by anti-human Fc, CLL-1 as analyte
[3] = target: T3, recombinant human CLL-1 extracellular …; assay: as above
[4] = target: T1, human CLL-1 on cells (endogenous on …); assay: Scatchard, 293AD/huCLL-1 cells
Protocol: (§1) Competition assay mixtures of 50 μL volume containing a fixed concentration of [1¹²⁵] labeled antibody and decreasing concentrations of serially diluted, unlabeled antibody were placed into 96-well plates. HEK293AD cells stably expressing recombinant hu or cynoCLL-1 or HL-60 tumor cells expressing endogenous CLL-1 were cultured in growth media at 37° C. in 5% CO₂. Cells were detached from the flask using Sigma Cell Dissociation Solution and were washed with binding buffer, which consisted of Dulbecco's Modified Eagle Medium (DMEM) with 1% bovine serum albumin (BSA), […] and 0.1% sodium azide. The washed cells were added to the 96 well plates at a density of 100,000 cells in 0.2 mL of binding buffer. […] The final concentration of the unlabeled antibody in the competition assay ranged from 1000 nM through ten 2-fold dilution steps to a 0 nM buffer-only assay. Competition assays were carried out in triplicate. Competition assays were incubated for 2 hours at room temperature. After the 2-hour incubation, the competition assays were transferred to a Millipore Multiscreen filter plate (Billerica, Mass.) and washed 4 times with binding buffer to separate the free from bound [I¹²⁵] labeled antibody. The filters were counted on a Wallac Wizard 1470 gamma counter (PerkinElmer Life and Analytical Sciences Inc.; Wellesley, Mass.). The binding data was evaluated using NewLigand software (Genentech), which uses the fitting algorithm of Munson and Robard to determine the binding affinity of the antibody (Munson and Robard 1980).

[5] = target: T2, recombinant cynomolgus CLL-1 …; assay: affinity column of the TDB summary table (rounded Biacore KD of the second the 8th table / the 4th table tables)
[6] = target: T3, recombinant human CLL-1 extracellular …; assay: as above
[7] = target: T2, recombinant cynomolgus CLL-1 …; assay: SPR (Biacore T200), IgG captured by anti-human Fc, CLL-1 as analyte
[8] = target: T3, recombinant human CLL-1 extracellular …; assay: as above
[9] = target: T1, human CLL-1 on cells (endogenous on …); assay: Scatchard, HL-60 cells
Protocol: as §1, with “After the 2-hour incubation, the competition assays were transferred to a Millipore Multiscreen filter plate (Billerica, Mass.) and washed 4 times with binding buffer to separate the free from bound [I¹²⁵] labeled antibody.” left out

[10] = target: T4, cynomolgus CLL-1 on cells (recombinant …); assay: Scatchard, 293AD/cynoCLL1 cells
Protocol: as §1, with “After the 2-hour incubation, the competition assays were transferred to a Millipore Multiscreen filter plate (Billerica, Mass.) and washed 4 times with binding buffer to separate the free from bound [I¹²⁵] labeled antibody.” left out

[11] = target: T3, recombinant human CLL-1 extracellular …; assay: SPR (Biacore T200), IgG captured by anti-human Fc, human CLL-1 as analyte
Protocol: The binding affinity of the antibodies in this section was determined by BIAcore™ T200 Format. Briefly, BIAcore™ research grade CM5 chips were activated with 1-ethyl-3-(3-dimethylaminopropyl) carbodiimide (EDC) and N-hydroxysuccinimide (NHS) reagents according to the supplier's instructions. Goat anti-human Fc IgGs were coupled to the chips to achieve approximately 10,000 response units (RU) in each flow cell. Unreacted coupling groups were blocked with 1M ethanolamine. For kinetics measurements, antibodies were captured to achieve approximately 300 RU. Three-fold serial dilutions of human CLL-1 was injected in HBS-P buffer (0.01M HEPES pH7.4, 0.15M NaCl, 0.005% surfactant P20) at 25° C. with a flow rate of 30 μl/min. Association rates (kon) and dissociation rates (koff) were calculated using a 1:1 Langmuir binding model (BIAcore™ T200 Evaluation Software version 2.0). The equilibrium dissociation constant (Kd) was calculated as the ratio koff/kon.

[12] = target: T5, cynoCD3εγ; assay: SPR (Biacore)
[13] = target: T6, hCD3εγ (human, UniProt P07766 23-126; P09693 23-116); assay: SPR (Biacore)
T6 construct: also called human CD3εγ

[14] = target: T2, recombinant cynomolgus CLL-1 …; assay: SPR (Biacore), chimeric IgG captured by anti-human IgG, CLL-1 as analyte
Protocol: (§2) The chimeric anti-CLL-1 human IgG were captured by mouse anti-human IgG coated on the CM5 sensor chip. […] Association rates (kon) and dissociation rates (koff) were calculated using a simple one-to-one Langmuir binding model. The equilibrium dissociation constant (KD) was calculated as the ratio koff/kon.

[15] = target: T3, recombinant human CLL-1 extracellular …; assay: as above
Protocol: as §2

T6 sequence (P07766 23-126, chain 1 of 2): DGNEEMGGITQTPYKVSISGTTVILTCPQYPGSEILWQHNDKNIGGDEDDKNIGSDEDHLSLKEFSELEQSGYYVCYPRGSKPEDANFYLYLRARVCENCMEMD
T6 sequence (P09693 23-116, chain 2 of 2): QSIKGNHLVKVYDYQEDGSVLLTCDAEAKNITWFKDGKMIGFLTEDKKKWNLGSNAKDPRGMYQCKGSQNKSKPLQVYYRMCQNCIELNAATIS

Row | Binder | Kd [1] | Kd [2] [nM] | Kd [3] [nM] | Kd [4] | Kd [5] [nM] | Kd [6] [nM] | Kd [7] [nM] | Kd [8] [nM] | Kd [9] | Kd [10] [nM] | Kd [12] [nM] | Kd [13] [nM] | further results
1 | 6E7.L4H1e (antibody, V domains shown, humanized, assessed in the form of an IgG; also called humanized 6E7.L4H1e; h6E7) VH: EVQLVQSGAEVKKPGASVKVSCKASGYSFTDYYMHWVRQAPGQGLEWIGRINPYNGAAFYSQNFKDRVTLTVDTSTSTAYLELSSLRSEDTAVYYCAIERGADLEGYAMDYWGQGTLVTVSS VL: DIQMTQSPSSLSASVGDRVTITCRASQSVSTSSYNYMHWYQQKPGKPPKLLIKYASNLESGVPSRFSGSGSGTDFTLTISSLQPEDFATYYCQHSWEIPLTFGQGTKVEIK | 0.25 nM and 0.29 nM | 2.26 | 1.08 | 0.68 nM and 0.35 nM | 2.2 | 1.1 | 0.317 | 0.622 | 0.6 nM and 0.34 nM | – | – | – | koff [2]: 0.00181 s⁻¹; kon [2]: 804000 M⁻¹ s⁻¹; koff [3]: 0.000984 s⁻¹; kon [3]: 910000 M⁻¹ s⁻¹; koff [7]: 0.000234 s⁻¹; kon [7]: 739000 M⁻¹ s⁻¹; koff [8]: 0.000512 s⁻¹; kon [8]: 824000 M⁻¹ s⁻¹
2 | 6E7.L4H1eA54 (antibody, V domains shown, humanized IgG; also called 6E7.L4H1eN54A; h6E7A) VH: EVQLVQSGAEVKKPGASVKVSCKASGYSFTDYYMHWVRQAPGQGLEWIGRINPYAGAAFYSQNFKDRVTLTVDTSTSTAYLELSSLRSEDTAVYYCAIERGADLEGYAMDYWGQGTLVTVSS VL: DIQMTQSPSSLSASVGDRVTITCRASQSVSTSSYNYMHWYQQKPGKPPKLLIKYASNLESGVPSRFSGSGSGTDFTLTISSLQPEDFATYYCQHSWEIPLTFGQGTKVEIK | 0.32 nM | 3.14 | 3.08 | 0.89 nM | – | – | – | – | 0.64 nM | 0.9 | – | – | –
3 | 21C9.L2H3 (antibody, V domains shown, humanized, assessed in the form of an IgG; also called humanized 21C9.L2H3; h21C9) VH: EVQLVQSGAEVKKPGASVKVSCKASGYTFTDYYLDWVRQAPGQGLEWIGRVNPYNGGTIYNQKFKGRVTLTRDTSTSTAYLELSSLRSEDTAVYYCARDHYRYDPLLDYWGQGTLVTVSS VL: DIQMTQSPSSLSASVGDRVTITCKASQDVSTAVAWFQQKPGKAPKLLIYSPSYRYTGVPSRFSGSGSGTDFTLTISSLQPEDFATYYCQQLYSTPYTFGQGTKVEIK | 0.74 nM | 9.3 | 15.1 | 3.6 nM | – | – | 9.47 | 11.7 | – | 2.4 | – | – | Kd [11]: 9.79 nM
4 | 38E4v1 (antibody, V domains shown, also called h38E4v1) VH: EVQLVQSGAEVKKPGASVKVSCKASGFTFTSYYIHWVRQAPGQGLEWIGWIYPENDNTKYNEKFKDRVTITADTSTSTAYLELSSLRSEDTAVYYCARDGYSRYYFDYWGQGTLVTVSS VL: DIVMTQSPDSLAVSLGERATINCKSSQSLLNSRTRKNYLAWYQQKPGQSPKLLIYWTSTRKSGVPDRFSGSGSGTDFTLTISSLQAEDVAVYYCKQSFILRTFGQGTKVEIK | – | – | – | – | – | – | – | – | – | – | 0.7 | 0.5 | –
5 | 40G5c (antibody, V domains shown, also called h40G5c) VH: EVQLVQSGAEVKKPGASVKVSCKASGYTFTNYYIHWVRQAPGQGLEWIGWIYPGDGNTKYNEKFKGRATLTADTSTSTAYLELSSLRSEDTAVYYCARDSYSNYYFDYWGQGTLVTVSS VL: DIVMTQSPDSLAVSLGERATINCKSSQSLLNSRTRKNYLAWYQQKPGQPPKLLIYWASTRESGVPDRFSGSGSGTDFTLTISSLQAEDVAVYYCTQSFILRTFGQGTKVEIK | – | – | – | – | – | – | – | – | – | – | 14 | 12 | –
6 | ch28H12 (antibody, V domains shown, chimeric version of m28H12, human IgG; also called chimeric 28H12) VH: QVQLQQSGAELVKPGASVKLSCTASGFNIKDTYMHWVKQRPEQGLEWIGRIDPANGDTDYDPKFQGKATVTADTSSNTAYLQLSSLTSEDTAVYYCTISGPPYYVMDYWGQGTSVTVSS VL: DIQMTQSPASLAVSLGQRATISCRASQSVSSSSYSYMHWYQQKPGQPPKLLIKYASNLESGVPARFSGRGSGTDFTLNIHPVEEEDTATYYCQHSWEIPYTFGGGTRLEIK | – | – | – | – | 0.3 | 18 | – | – | – | – | – | – | Kd [14]: 0.3 nM; koff [14]: 0.00023 s⁻¹; kon [14]: 670000 M⁻¹ s⁻¹; Kd [15]: 18 nM; koff [15]: 0.0095 s⁻¹; kon [15]: 500000 M⁻¹ s⁻¹
